According to article PMC10612264, “A novel transcriptional repressor specifically regulates xylanase gene 1 in Trichoderma reesei”:
Changes are numbered by the printed parent chain.

T1: XTR1 DBD (Trichoderma reesei QM9414) (UniProt G0RH11)
T1 sequence: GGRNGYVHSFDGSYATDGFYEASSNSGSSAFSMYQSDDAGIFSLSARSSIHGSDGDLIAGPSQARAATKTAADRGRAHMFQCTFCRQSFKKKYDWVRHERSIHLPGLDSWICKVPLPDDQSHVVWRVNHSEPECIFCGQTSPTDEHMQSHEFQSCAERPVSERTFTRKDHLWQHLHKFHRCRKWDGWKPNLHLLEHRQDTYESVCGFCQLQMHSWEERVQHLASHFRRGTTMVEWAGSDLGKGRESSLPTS

T2: XYR1 DBD (Trichoderma reesei) (UniProt G0RLE8)
T2 sequence: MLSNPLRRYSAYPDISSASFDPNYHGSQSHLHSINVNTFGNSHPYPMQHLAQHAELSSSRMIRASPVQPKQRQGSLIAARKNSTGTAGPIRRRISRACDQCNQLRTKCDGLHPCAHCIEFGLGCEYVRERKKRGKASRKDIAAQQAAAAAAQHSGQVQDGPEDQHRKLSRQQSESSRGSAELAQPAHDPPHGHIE

T3: XTR1 DBD (Trichoderma reesei QM9414, UniProt G0RH11 285-535)
T3 sequence: T1 sequence

B1: Pxyn1 (-321 to -217) GG2-3 to AA (dsDNA)
DNA 1: AACTAGGACCGGCTTGTGTCGATATTGCGGGTGGCGTTCAATCTATTCCGGCACTCCTATGCCGTTTGATCCGATACCTAAAGGGCGTGCTTTAGGCAAAATGCC
DNA 2: GGCATTTTGCCTAAAGCACGCCCTTTAGGTATCGGATCAAACGGCATAGGAGTGCCGGAATAGATTGAACGCCACCCGCAATATCGACACAAGCCGGTCCTAGTT
B2: Pxyn1 (-321 to -217) CGTGC8-12 to TTGTT (dsDNA)
DNA 1: B1 DNA 1 with A80G, A81G, C86T, G87T, T88G, G89T, C90T
DNA 2: B1 DNA 2 with G16A, C17A, A18C, C19A, G20A, T25C, T26C
B3: Pxyn1 (-321 to -217) 3' TTT to AAA (dsDNA)
DNA 1: B1 DNA 1 with A80G, A81G, T91G, T92G, T93G
DNA 2: B1 DNA 2 with A13C, A14C, A15C, T25C, T26C
B4: Pxyn1 (-321 to -217) GGG5-7 to AAA (dsDNA)
DNA 1: B1 DNA 1 with A80G, A81G, G83A, G84A, G85A
DNA 2: B1 DNA 2 with C21T, C22T, C23T, T25C, T26C

Experiments:
[1] = target: T1, XTR1 DBD (Trichoderma reesei QM9414); test: EMSA; details: EMSA: 10 mM Tris pH 7.5, 50 mM KCl, 1 mM DTT, 150 ng DNA, 20 C 30 min, 6% native PAGE at 4 C in 0.5x TBE, EtBr; footprinting: 180 ng DNA, 25 C 30 min
[2] = target: T2, XYR1 DBD (Trichoderma reesei); test: EMSA; details: EMSA: 10 mM Tris pH 7.5, 50 mM KCl, 1 mM DTT, 150 ng DNA, 20 C 30 min, 6% native PAGE at 4 C in 0.5x TBE, EtBr; footprinting: 180 ng DNA, 25 C 30 min
XTR1 DBD [3] = target: T3, XTR1 DBD; test: EMSA; EMSA: 10 mM Tris pH 7.5, 50 mM KCl, 1 mM DTT, 150 ng DNA, 20 C 30 min, 6% native PAGE at 4 C in 0.5x TBE, EtBr; footprinting: 180 ng DNA, 25 C 30 min; details: protein: recombinant; tags: His tag (pET22b NdeI/XhoI, Ni-NTA); label: none (EtBr stain)
XTR1 DBD [4] = target: T3, XTR1 DBD; test: EMSA; binding increased vs wild type; EMSA: 10 mM Tris pH 7.5, 50 mM KCl, 1 mM DTT, 150 ng DNA, 20 C 30 min, 6% native PAGE at 4 C in 0.5x TBE, EtBr; footprinting: 180 ng DNA, 25 C 30 min; details: protein: recombinant; tags: His tag (pET22b NdeI/XhoI, Ni-NTA); label: none (EtBr stain)

| Molecule | binding [1] | binding result (XTR1 DBD [3]) | other results |
| --- | --- | --- | --- |
| AACTAGGACCGGCTTGTGTCGATATTGCGGGTGGCGTTCAATCTATTCCGGCACTCCTATGCCGTTTGATCCGATACCTGGAGGGCGTGCTTTAGGCAAAATGCCAAGCTTCGAGGATACTGTACGAGCCGCTTTCAACCTCACTTGATGATGTCTGAGTTTCATCAAGAGAATTGAAGTCAAAGCTCAAATCATGATGTGAAGAGGTTTTGAATGTGGAAGAATTCTGCATA (double strand) [Pxyn1 (-321 to -91)] | binds | – | – |
| AACTAGGACCGGCTTGTGTCGATATTGCGGGTGGCGTTCAATCTATTCCGGCACTCCTATGCCGTTTGATCCGATACCTGGAGGGCGTGCTTTAGGCAAAATGCC (double strand) [Pxyn1 (-321 to -217)] | binds | – | binding [2]: binds |
| AAGCTTCGAGGATACTGTACGAGCCGCTTTCAACCTCACTTGATGATGTCTGAGTTTCATCAAGAGAATTGAAGTCAAAGCTCAAATCATGATGTGAAGAGGTTTTGAATGTGGAAGAATTCTGCATA (double strand) [Pxyn1 (-217 to -91)] | no binding | – | – |
| B1 | – | binds | – |
| B2 | – | no binding | – |
| B3 | – | – | binding result (XTR1 DBD [4]): binds |
| B4 | – | binds | – |
